Test [1] is described as follows: pNPA method esterase (carboxylesterase) activity assay of spore productions. Type of test: biochemical. The conditions noted are these: 30° C. for 30 minutes, absorbance at 400. Here is the method:
Each of the identified enzymes were evaluated for esterase activity assay using pNBA method described below. Determination of carboxylesterase activity of cargo enzyme in Bacillus thuringiensis spore productions or of free enzyme productions. Three active carboxylesterases cloned into pBCm (Bt EO) and pET28a (E. coli BL21) systems: pnbA (B. subtilis), PytH2 (Sphingobium wenxiniae strain), and MsE1 (Methylobacterium sp). p-Nitrophenyl acetate was the substrate in assays for esterase activity. The hydrolysis of p-nitrophenyl acetate releases p-nitrophenol and acetate, and while p-nitrophenyl acetate is colorless, p-nitrophenol is yellow.
6 mg p-Nitrophenyl acetate (pNPA, CAS #830-03-5, MW: 181.1 g/mol) was weighed and dissolved in 1 mL methanol (CAS #67-56-1, MW: 32.04 g/mol). Stored at −20° C. and kept on ice when preparing reactions.
8.0 g sodium chloride (NaCl, CAS #7647-14-5, MW: 58.44 g/mol), 1.44 g sodium phosphate dibasic was dissolved (Na2HPO4, CAS #7558-79-4, MW: 141.96 g/mol), and 0.24 g potassium phosphate monobasic (KH2PO4, CAS #7778-77-0, 136.09 g/mol) in 800 mL DI H20, then adjust pH to 7.4 using hydrochloric acid (HCl, CAS #7647-01-0, MW: 36.46 g/mol). Make 100 mL aliquots and autoclave.
Esterase from rabbit liver (CAS #9016-18-6, Sigma E0887-powder). Store at −20° C. To prepare a stock dissolve 1 mg in 1 mL PBS, kept on ice when using.
Up to 1 mL spore production was pelleted up for 5 min at max speed. Supernatant was discarded without disturbing spore pellet and suspend pellet in ice-cold PBS. Spores kept suspended on ice until use.
The assay was run at 30° C. for 30 minutes. The assay was shaken continuously. Activity was read on (A) 400 BioTek Synergy/HTX microplate reader was used. The results of pNPA hydrolysis are shown in Table 3 depicting carboxylesterase enzyme activity for each of the five strains using pNPA hydrolysis.

A short description of test [2]: Biological permethrin assay for esterase activity (activity units of esterases). The test is classed as biochemical. The conditions noted are these: esterases used in reaction mix for scud assay. The procedure:
A biological permethrin assay was performed for control, and three esterases pnbA, pytH2 and MsE1. The sensitivity of scuds (Hyalella Azteca) to permethrin was tested with three esterases pnbA, pytH2 and MsE1.
For control and each of the three esterases pnbA, pytH2 and MsE1, ten scuds were exposed to permethrin and one of pnbA, pytH2 or MsE1.
• 100 μL 50% MeOH in PBS • 0.2 μg/μL
• 37 degree C. • 18 hr • Shanking 1000 rpm Transferred 20 μL rxn mix [4 μg] to 100 mL [containing 10 scuds] At time, 24 h and 48 h the ten scuds were scored: A=Alive and Moving actively BA=Barely Alive—Difficulty swimming away; only legs are moving D=Dead—Not moving at all The results of which are shown in FIGS. 8 and 9.

B1: E1: pyrethroid-hydrolyzing carboxylesterase pytZ from Ochrobactrum sp., amino acid SEQ. ID No. 1 (protein)
chain: MTTQTYEHRLKAGAKGAPLFIVFHGTGGDENQFFGLAEQLLPDATIMSPRGDVSEYGAARFFRRTGEGVYDMEDLARATDKMAGFIAALAAEYKTSEVIGLGYSNGANIMANLLIEKGRVEDKAALLHPLVPFRPKDNPALEGAKILMTAGRMDPICPPDLTEALAQYFERQKADVELVWHPGGHELRQTELAAVQSLLAY
modifications: Ochrobactrum sp
Consider B1, for which the pNPA hydrolysis result in test [1] is on record as “BDL”.

B2: E2: pyrethroid-hydrolyzing carboxylesterase pnbA from B. subtilis, amino acid SEQ. ID No. 2 (protein, listed as Bacillus subtilis)
chain: MTHQIVTTQYGKVKGTTENGVHKWKGIPYAKPPVGQWRFKAPEPPEVWEDVLDATAYGSICPQPSDLLSLSYTELPRQSEDCLYVNVFAPDTPSKNLPVMVWIHGGAFYLGAGSEPLYDGSKLAAQGEVIVVTLNYRLGPFGFLHLSSFNEAYSDNLGLLDQAAALKWVRENISAFGGDPDNVTVFGESAGGMSIAALLAMPAAKGLFQICAIMESGASRTMTICEQAASTSAAFLQVLGINEGQLDKLHTVSAEDLLKAADQLRIAEKENFQLFFQPALDPKTLPEEPEKAIAEGAASGIPLLIGTTRDEGYLFFTPDSDVHSQETLDAALEYLLGKPLAEKVADLYPRSLESQIHMMTDLLEWRPAVAYASAQSHYAPVWMYREDWHPKKPPYNKAFHALELPFVFGNLDGLERMAKAEITDEVKQLSHTIQSAWITFAKTGNPSTEAVNWPAYHEETRETLILDSEITIENDPESEICRQKLEPSKGE
Turning to B2, the Activity units in test [2] turned out to be 31.4. Further, the pNPA hydrolysis in test [1] turned out to be 19.7 ± 1.4 nmol pNPA/min/1E+8 spores.

B3: E4: pyrethroid-hydrolyzing carboxylesterase MsE1 from Methylobacterium sp., amino acid SEQ. ID No. 4 (protein)
chain: MTQDTTGFIFIREEPGPDTTRPLMLLHGTGGDENDLLPLGRMVAPEAALLAPRGGVSENGMPRFFRRLAEGVFDEADLRRRTGDLAAFVAASRARYGLGAPLALGFSNGANIAASLLMLRPETLTGAVLIRPMVPFAEPPAADLAGRPVLILSGAMDPIVPVENARRLAQQLSASGARVEHRILPAGHGLSQADVSQALAWLRSLPGPEAA
modifications: Methylobacterium
For the molecule B3, in test [2], the Activity units is 39.5. Also, the pNPA hydrolysis in test [1] worked out at 30.6 ± 0.0 nmol pNPA/min/1E+8 spores.

B4: E5: esterase EstP from Klebsiella sp., amino acid SEQ. ID No. 5 (protein)
chain: MEICTKGSRKHLTSRASEPSYNVPENQYVLYVVSSTLSIVICQLVKVAESKKSRFSGAIEKLNERLDSLKDYRIINRDLVVKDLERLKKRFDTEVINAELSEQLAKINVNLSRSYSEKGYLRLEKATGSENEWWAKKPSQNDDWQQFEPDGYTIFSSRDHYASLEKSYSDYEIEAKIPLPLRRGICAVVLYPEYISRICVLPESRSIQREQENFTKLRDKGIALSKKDWQAKLTIDELAEQEKERATINKRLGYFATEHEKVGIVHKALEPKLICPFQQIEKEWRQCKVKSKSTFPNSMTFVQNPAYQAVHSGFKKLKEQIGLADEDILLSLEKIEAIGLVNMPLLYERWCLLQIIKVLTQAFRYQPEDNWKRKLIANIQGNEEQISIQFFNPSVSRAITLQYEPFLANGKRPDFVLDVEAITKSGNQISKRLVVDAKYYSAAYLKQRGGIGGVIHELYNGKDYSECQENSVFVLHPVLDAVEKVVSPQEWAKDSYLGELSMFDWEPAHHQRQATNYGAVCANPMKSQRYLDEIQRMLGMFLQYGIEDNTSFRGASDDTHAVNFCVSCGSEKVVDVTKSMSSNNQKRWYRCNECTHFTVYTHCGTCNTRLIKNGEYWTYLSLMPMSSINIKCPNCESPV
modifications: Klebsiella
As for B4, the pNPA hydrolysis entry in test [1] is given as “BDL”.

These data come from patent US20220047684A1, “ENZYMES AND METHODS FOR PREVENTING AND TREATING […] IN ANIMALS” (Ecto Development Corporation, priority 2020, published 2022).
